Assay: label from the status in PepcDB records

Sequence | protein production
MGNNGRDILAGLSVAGLMLPEAIAYSGIAGVPPQHALYAAMAGCLVYALLGQSRFAIISPTSSSAAILAAMLAALVPQPGQKMLLVAVAVFLVGLFFLAAGTLRLGALSSIISRPVLRGFAFGLAILISLKQFPAIFGMPQAGAGTFEAILQILTNPGQWNGFSLSIGIAALILLLFARRYPQIPGSLIIIALAIPISVMFDLQQRGVDVVGPIDLSGIWGSVTTLSLDELAHVARFAPPLVLILFAESWGTIRGLSLRHGEDVDANRELKTLGIANVASAALQGMPVGAGFSAGAASEAANPRTRMASAIAAIGLAGFTFAAADWFAYIPHAALSAIIIVALLHALDPSPFLRLWRLRQDLVLALAATAGVLFLGVLNGMLAAIVLSFAVFLQRLSSPRIVMLGRLGASHDFVDVKRHPDAAEPAGMLVLRPAQPLFFGNAEPTFAEITRRILASPDINAVIISLEETFELDTTALEALLEFDASLRGRNIGIRYAPMHDAVRDVVAAGGGDDLLRRANYSVDDAVAAMDGLKEEK | failed
MVVHGGAAYIRAMDHLPVDPARYGAFLVAMFVMAITPGPANLFAIATGMEKGKGAALAGVAGMNCATLIWFIGSALGLGALIIAFPQAFHLLALAGAAYLVWLGLKSLWAGWKNAESHAVAAVRGGKSAFVDGFAVQIANPKALLFFTAVLPPFLDVDRPLVPQLLMFACATIGMDLISMSAYGVGGAALSDRMNEPGFRRGFAILVGVLLITAAGLIVSRG | failed
MTGSVVVAGLGPGAQELITPEVSAALALATDIVGYAPYVARVAERDGLQRHASDNREELDRAGFALRLATEGRHVVIVSSGDPGVFAMAAALFEAIEAGDPSWRELDIRVLPGISAMFATAARIGAPLGHDFCAINLSDNLKPWETVEKRLRAAAEADFVIALYNPISKARPWQLGRAFELLRSIHPASVPVIFATAISDPRERIDVAPLGEAVPQRADMRTLVMIGSSQTRIIPRSSGADFVYTPRFSGAVS | failed
MASKKKPIDSRVDYSLILPVFFLVLIGLFSVYTATIHDYPSKIMVVMGQQLIWLIMGAAISFVVMLFSTEFLWKITPYLYGLGLILMIFPLIFYSPELVASTGAKNWVSIGSVTLFQPSEFMKISYILILARLTVTFKQKYKEKNLQEDGKLLLWFALLTLPIMILLALQKDLGTAMVFMAILAGLVLIAGISWQIILPVVGAVALIVALFMVVFLIPGGKEFLYHHMGVDTYQINRLSAWLNPFDYAGSIAYQQTQGMISIGSGGLFGKGFNIVELPVPVRESDMIFTVIAENFGFIGGSIVLALYLILIYRMLRVTFASNNLFYTYISTGFIMMILFHIFENIGAAVGILPLTGIPLPFISQGGSSLISNLIGVGLVLSMSYQNSLNQEKATERYFAHIKKESLTS | failed
MGGGGHGGGITYKGVTVHTPKTWHTVTGKGLCAVMWFWILYRAKQDGPVVMGWRHPWDGHGDHGHGDHH | failed
MARKKITLVGAGNIGGTLAHLALIKQLGDVVLFDIAQGMPNGKALDLLQTCPIEGVDFKVRGTNDYKDLENSDVVIVTAGVPRKPGMSRDDLLGINIKVMQTVGEGIKHNCPNAFVICITNPLDIMVNMLQKFSGVPDNKIVGMAGVLDSARFRTFLADELNVSVQQVQAYVMGGHGDTMVPLTKMSNVAGVSLEQLVKEGKLKQERLDAIVSRTRSGGGEIVALLKTGSAYYAPAAAGIQMAESFLKDKKMILPCAAKVKAGMYGLDEDLFVGVPTEISANGVRPIEVEISDKEREQLQVSINAIKDLNKAAAEILAK | not failed
MSLKKYQLVIVGYGGMGSYHVTLASAADNLEVHGVFDILAEKREAAAQKGLKIYESYEAVLADEKVDAVLIATPNDSHKELAISALEAGKHVVCEKPVTMTSEDLLAIMDVAKRVNKHFMAHQNRRWDEDFLIIKEMFEQKTIGEMFHLESRVHGANGIPGDWRHLKAHGGGMVLDWGVHLLDQLLFLVDSNVKSVSANLSFALGDEVDDGFVTFITFENGITAQIEVGTTNFIKLPRWYVKGTEGTGIIHDWDLSGEIVKPTALAKTSEPTPIKAGQGLTKTMAPPSEEATNTLSLPAPAKLAPSFYNNFVDVLNNTSEPIVQNEEVYQVLKLIEAIFEAAETNRTVHSIEGHHHHHH | not failed
MNSENHPATTFKSRIKSSLPYTLAVAIIGFVSLWVRMRPYDHVFLSNGFVKFTSNDPWYHIRTLNVLLENYPQRMFFNPMTNYPYGSYIHFGPLYDQMMAITSLILGLGSPSQDLINTVGAYFPAVLGALTVIPVYYIGKYLGGRKTGILAAVFIAFAPGQFLSRSLIGFTDHHVAESLFSTFFMMFFMLAIITAKKKNLRFEDLFNKNFIVVKEPLIYSIIAGVMYSAYQLSWPGASLFLFIALVYAVVQYILDNFNGESSDYLGFTGIITFLVSAILILPFIHPELGFSMYYYTWFHVATAIGTMAGFAALSLIQREFKNRNLKAYYYPLAIFLLGFLGLLAIRFASPSVYSLIISAPNTVFGVLTGGAATIGEVSSMFYYGGTFTLSRAFGNFTVSGFFASIIGLIILLVSVIRKAKPEEVLVLVWSILMLFAIYGQNRFAYYYSINVSILSAYIGGLLLEKVKWNELDEKFKSSVKSPADIPGFLKSFRAKQVLAVLAIAVFLIYPVYGAAMVQSTGSNDPDWAWIEACLWLKSSTPDPGMDYNAIYEAPEDGKLFDYPESAYGVMSWWDYGHYIETLGHRMPNANPFQAGIGGRRGSINETNVPGAAPFLTAQSEEEATEVLESIHPDPEKSGARYIMSDERMAVDIFMAMPEWTLDTEGYMQPYWTGDGYQYLPSKRYFDSMESRLHFLDGNGLKQYRLVYETWAYQTQEAGYKQVYNFLYGSSIPEVDSGYVKIFEYVKGAKITGTVSPNETVNINTTILTGQGRTFEYSQSTSSDSEGRYEFIVPYSTEGPIPGETQFDTAPTGAYVVSYGDTTTEVRVSEEAVLNGEEIKV | failed
MNLEPLRKRVRQYLDQQQYQSALFWADKVASLSHEEPQDVYWLAQCLYLTAQYHRAAHALRSRKLDKLYEACRYLAARCHYAAKEHQQALDILDMEEPINRRLFEKYLKDDNGSRDPSSDWEMSQSSIKSSICLLRGKIYDALDNRTLATYSYKEALKLDVYCFEAFDLLTSHHMLTAQEEKELLDSLPLNKLCAEEQELLRFVFENKLKKYNKPSETVIPESVDGLQENLDVVVSLAERHYYNCDFKMCYKLTSTVMEKDPFHANCLPVHIGTLVELNKANELFYLSHKLVDLYPSNPVSWFAVGCYYLMVGHKNEHARRYLSKATTLEKTYGPAWIAYGHSFAVESEHDQAMAAYFTAAQLMKGCHLPMLYIGLEYGLTNNSKLAERFFGQALSIAPEDPFVIHEVGVVAFQNGEWKTAEKWFLDALEKIKAIGNEVTVDKWEPLLNNLGHVCRKLKKYAEALDYHRQALVLIPQNASTYSAIGYIHSLMGNFENAVDYFHTALGLRRDDTFSVTMLGHCIEMYIGDSEAYIGADIKDKLKCYDFDVHTMKTLKNIISPPWDFRDFEVEKQNTEEAGLAPLQNSTKAPESRPNLEETFEIEMNESDMMLETSMSDHST | failed
MLRLVKKSVIGLVDWFLYKALKTSQKQFLSSLLTEKQKQAIKRVIKPGKKQTQLRKIERLKYRLYNLGFTNRALEDLQLICRESGEPYLKRLAAWELALWHANQYTTEDAKACLRYLDIATTGVKDRDDLRAVAIVKAECYDLLGEREQGKELVQQMIETQPHPDLYLAAANLETTVAQRMKWINKVFAHYGTEPLELTEQADEKSPYDALGVNGIDESSENDEQPKVTVIIPAFNAESVIQTSIESMQKQTWTNLEIFVVDDCSTDETASIVHQYAEQDHRVHYLKTETNSGAYVARNIALQHATGDFVTINDADDWSHSRKIEIQVRHLLKHPNIIGNFSQQVRATNDLKFYRRGKPGLYIFANMSSFMFRRKPAMDKLGYWDCVRFAGDSEFVKRIKLAFGEKAVVELPTAPLSFQRQSGESLTSHSAFGFPGYFMGARREYAEAHDHFHRTSQEGLRYSFPQKERPFPVPEPMLPNRQPKSAGRRHFDVILASEFRLLGGTNMSNVEEIKAQREMGLRTGLIQLSRYDLNSVEAINPNVRELIDGDQVQMIVYGEQVSCDVLIVRHPPILQEWQRYVPNVEAKSVHVIVNQPPQRDYGDNGSVLYELPRCIDHLQAYFGKKGIWYPIGPNVREALYEHHHKDLQAIPFSDQDWVNIINVKEWKRVTRREKDGKIKIGRHSRDQYVKWPKDRATMLQIYPDKEPFEVHILGGAKSPTKVLGSLPANWHVREFGEVHPREFLAELDVFVYFTHPDWVEAFGRVVFEAMAAGVPVIVPHEYEKLFGEAAIYAEITEVQEKVMKLMADDKYYQSQVEKALIYVENQFGYSQHAARLETFLHEDERAEV | failed
MVILEQTHLVKNKAVDNKKSMKYSIFQQALTIAVILLISKIIESFMPIPMPASVIGLVLLFIALCTGIVKLGQVETVGTALTNNIGFLFVPAGISVINSLPILKQSPILIILLIIISTLLLLICTGFSSQLLVTKSLFPSKEKNEETSHIGG | failed
MTHIIIDGDACPVVDSIIDLTTETGIFVTIIRSFSHFSNQLYPPHVSTLYVDDGPDAVDYKIVQLSTKDDIVVTQDYGLASLLVDKVLIVMHHNGKIYNSKNIQQLLDKRYINAQIRKQGGRHKGPPPFTKQDQKVFEQSLLKVIHRIKELDLEHHHHHH | not failed
MPRLAISRLWPMLTAVALLSPLATAQQGQTLRAGELTVTLTPTQPDSNGWYRAGRLELQGTDEGIRGVETSRLRGAVLGELSPDGRWLSVLGTGGGYVQLWNVATAERQFTFLAHDKKSYDARLAAFSPDSRRLVFYSYPNELSLWDTATGVRVKLLSDVRKGGWWTADADAVFSPDGKTFVVTGGGGGAQLFDTRTGDLLQTFDRPCQSFGPGSPGGFWRGAVGATFSADGKNVAVLYAGGAARLYGVAGAGALAKASWKLDNFKPSQMRFWAGKLTLNGRELSGKTPNGLSFTLTF | failed
MRVIVTEYQPAWVEQFEEEAQALKQILKENCLKVEHIGSTSVPNLAAKPIIDFLVIVEEIEKVDLLQWEFERIGYEYMGEFGLSGRRYLRKGPIKRTHHVHIYQFDNTQEILRHLAFRNYLRENPAIATTYGTLKKQLAQAHPDSIDKYMDGKDAFIKKIEKEALKKYWE | not failed
MAVSSNGGAIKAVIYDCDGVMFDSFEANLAFYQRIMEMMGRPRLSRDNEEQMRILHTYANREVLAHFFPSPGDWEEAVRCAGAIDYRELVPLMIMEEGFREALDTLKGRVGLGVCTNRSTSMDMVLRLFSLDSYFSIVMTASRVTNPKPHPEPLLKVLEHFGIGPREALFVGDSEVDRLSAEAAGVPFVAYKAPLPAAYRMEHHREIIDLLG | not failed
MGFHDYIEETKNIFNRLYPDNKITDIDYEGPTIVVYTKDPELFAKRDDLVRQIAQEIRRRIAIRSDPSILLPEDQARESIEKIIPKEAGLEDIYFEPDTGEVIIELDEPSIVTARGTDYVQEIKSRTQWSPRIVRAPPMYSRTVKEVREFMREVKQERREFLHNLGVKLSGPPMVGETWVRLTALGGHSEVGRSATLVSTKNSKVLIDCGMMNVGPDADPWDAAPYLYVPEVQPLSTIDAVILTHAHLDHSGLLPLLFKYGYDGPVYMTPPTRDLAALLQNDYIKVARMEGGKVPYESKYIREELKHTITLRYGETTDITRDMRLTFYNAGHILGSASGHLHIGDGLYNVVLSGDVKFEKTWLFNPANNKFPRAETFMTESTYGGRDDYSFTREEATQTLIDVINRTHDRGGSVLIPVFAVGRSQEVMIVLEDAMRNGRIPQMDVYLDGMIMEAPAIHAAYPEYLNKELREAIMVKKENPFLSPIFKKVETRDRGRK | failed
MGWKMQATVTEIGKHAIDDSEKMIILFGETATDTLKQHAVIQSFPEKDQVTLAEGDHLKIGDTNYTITKVGSFANSNLQSIAHSTLIFADAPTDEDDVIRNGVYLTPHQLPKITIGTTIDYLVNGA | not failed

Reference: a protein production outcome set (Wang et al. 2014)
